# B1: Pistol ribozyme (parent)
# chain: GGGUCGUUGUUCCAUAAUCGCGUGGAUAUGGCACGCAAGUUUCUACCGGGCACCGUAAAUGUCCGACUGGAGCCGUUCGGGCGGCUAUAAACAGACCUCAGGCCCGAAGCGUGGCGGCACCUGCCGCCGGUGGUAAAAAAGAUCGGAAGAGCACACGUCU
# Variants of: B1
# Assay: aptazyme ON/OFF ratio, guanine; higher = stronger switching; co-transcriptional cleavage with and without guanine
row,Variant,aptazyme ON/OFF ratio
1,U7C U8C G9U U10C U11C C13A,1.02
2,U7C U8C G9U U10C U11C C13U,1.04
3,U7C U8C G9U U10C U11C C13G,1.1
4,U7C U8C G9U U10G U11G C13G,1.13
5,U7C U8C G9U U10G U11G C13A,1.1
6,U7C U8C G9U U10G U11G C13U,1.08
7,U7C U8C U10C U11G C13A,1.2
8,U7C U8C U10C U11G C13U,1.34
9,U7C U8C U10C U11G C13G,1.24
10,U7C U8C U10C U11A C12G C13G,1.29
11,U7C U8C U10C U11A C12G C13A,1.15
12,U7C U8C U10C U11A C12G C13U,1.2
13,U7C U8C U10G U11C,1.39
14,U7C U8C U10G U11A,1.24
15,U7C U8C U10A U11A C12U C13U,1.16
16,U7C U8C U10A U11A C12U C13G,1.28
17,U7C U8C U10A U11A C12U C13A,1.13
18,U7C U8C U10G C12A C13G,1.08
19,U7C U8C U10G C12A C13U,1.12
20,U7C U8C U10G C12A C13A,1.1
21,U7C U8C U10C U11C,1.46

row,Variant,aptazyme ON/OFF ratio
1,U7C U8C U10C U11G,1.23
2,U7C U8C U10C U11A,1.9
3,U7C U8C G9U U11G C13U,1.16
4,U7C U8C G9U U11G C13G,1.05
5,U7C U8C G9U U11G C13A,1.21
6,U7C U8C U10C C13A,1.24
7,U7C U8C U10C C13G,1.24
8,U7C U8C U10C C13U,2.08
9,U7C U8C G9U U10G C12U C13A,1.1
10,U7C U8C G9U U10G C12U C13G,1.12
11,U7C U8C G9U U10G C12U C13U,1.21
12,U7C U8C G9U U11G C12A C13A,1.19
13,U7C U8C G9U U11G C12A C13G,1.11
14,U7C U8C G9U U11G C12A C13U,1.14
15,U7C U8C G9U U10G U11C C13G,1.06
16,U7C U8C G9U U10G U11C C13U,1.21
17,U7C U8C G9U U10G U11C C13A,1.29
18,U7C U8C G9U U10G C12A C13U,1.1
19,U7C U8C G9U U10G C12A C13G,1.1
20,U7C U8C G9U U10G C12A C13A,1.06
21,U7C U8C U10C U11A C13A,1.33

row,Variant,aptazyme ON/OFF ratio
1,U7C U8C U10C U11A C13G,1.18
2,U7C U8C U10C U11A C13U,1.31
3,U7C U8C U10A U11A C12A,1.19
4,U7C U8C U10A U11A C12U,1.16
5,U7C U8C U10A U11A C12G,1.24
6,U7C U8C G9U U10G C13U,1.39
7,U7C U8C G9U U10G C13G,1.12
8,U7C U8C G9U U10G C13A,1.21
9,U7C U8C U10G U11A C13U,1.15
10,U7C U8C U10G U11A C13G,1.14
11,U7C U8C U10G U11A C13A,1.21
12,U7C U8C U10C U11G C12A C13U,1.52
13,U7C U8C U10C U11G C12A C13G,1.27
14,U7C U8C U10C U11G C12A C13A,1.32
15,U7C U8C U10C C12G C13U,1.2
16,U7C U8C U10C C12G C13A,1.24
17,U7C U8C U10C C12G C13G,1.18
18,U7C U8C G9U U10C U11C C12G,1.06
19,U7C U8C G9U U10C U11C C12U,1.23
20,U7C U8C G9U U10C U11C C12A,1.22
21,U7C U8C U10G U11A C12A,1.3

row,Variant,aptazyme ON/OFF ratio
1,U7C U8C U10G U11A C12G,1.14
2,U7C U8C U10G U11A C12U,1.12
3,U7C U8C G9U U10G,1.42
4,U7C U8C U10A U11A,1.63
5,U7C U8C U10A U11G,1.37
6,U7C U8C U10A U11C,1.03
7,U7C U8C U10C U11C C12A C13U,1.24
8,U7C U8C U10C U11C C12A C13G,1.24
9,U7C U8C U10C U11C C12A C13A,1.34
10,U7C U8C G9U U11A C12G C13G,1.16
11,U7C U8C G9U U11A C12G C13A,1.07
12,U7C U8C G9U U11A C12G C13U,1.13
13,U7C U8C U10A U11A C12G C13U,1.11
14,U7C U8C U10A U11A C12G C13A,1.14
15,U7C U8C U10A U11A C12G C13G,1.21
16,U7C U8C U10G C12G C13A,1.11
17,U7C U8C U10G C12G C13G,1.11
18,U7C U8C U10G C12G C13U,1.13
19,U7C U8C G9U U11A C12G,1.18
20,U7C U8C G9U U11A C12U,1.25

# From the RNAGym collection of RNA variant scans (doi:10.1021/acssynbio.7b00057)
